Paper PMC5733030, “Characterizing Isozymes of Chlorite Dismutase for Water Treatment” (Frontiers in Microbiology, 2017)

Columns and labels:
Assay in all cases: chloride ion selective electrode, initial rates, Michaelis-Menten fit
Conditions in all cases: 10 mM phosphate buffer pH 7.0, 21–23°C, soluble protein fraction
[1] = substrate: [O-][Cl+]O; assay type: biochemical, Nitrobacter winogradskyi
Description: chloride ion selective electrode, initial rates, Michaelis-Menten fit on rNwCld

[2] = substrate: [O-][Cl+]O; assay type: biochemical, Nitrospira defluvii
Description: chloride ion selective electrode, initial rates, Michaelis-Menten fit on rNdCld

[3] = substrate: [O-][Cl+]O; assay type: biochemical, Ideonella dechloratans
Description: chloride ion selective electrode, initial rates, Michaelis-Menten fit on rIdCld

B1: rNwCld (Nitrobacter winogradskyi Nb-255) (protein)
chain: MTFTVFTGGDSGAWSILSVAPVIGESLMAASHLAIAPSLSLGDTSATTPWQLRGVASHARYVERAEKIALTSVQAGLGRNEATRAALIPIRKSAAWWEMTQDERRAIFEDKSHHIAASLKYLPAIARQLYHCRDIGEPFDFLTWFEYAPEHATMFEDLVGVLRATEEWTYVEREVDIRLARAI
notes: recombinant, plasmid pET21b-Nwcld (Dr. Daims) in E. coli BL21 (DE3); soluble protein fraction, not purified
- Km [1]: 380 ± 150 µM

B2: rNdCld (Nitrospira defluvii) (protein)
chain: ADREKLLTESGVYGTFATFQMDHDWWDLPGESRVISVAEVKGLVEQWSGKILVESYLLRGLSDHADLMFRVHARTLSDTQQFLSAFMGTRLGRHLTSGGLLHGVSKKPTYVAGFPESMKTELQVNGESGSRPYAIVIPIKKDAEWWALDQEARTALMQEHTQAALPYLKTVKRKLYHSTGLDDVDFITYFETERLEDFHNLVRALQQVKEFRHNRRFGHPTLLGTMSPLDEILEKFAQ
notes: recombinant, plasmid pET21b-Ndcld (Dr. Daims) in E. coli BL21 (DE3); soluble protein fraction, not purified
- Km [2]: 2500 ± 470 µM

B3: rIdCld (Ideonella dechloratans) (protein)
chain: AMNTPVDRAKILSAPGVFVAFSTYKIRPDYFKVALAERKGAADEVMAVLEKHKEKVIVDAYLTRGYEAKSDYFLRVHAYDAVAAQAFLVDFRATRFGMYSDVTESLVGITKALNYISKDKSPDLNKGLSGATYAGDAPRFAFMIPVKKNADWWNLTDEQRLKEMETHTLPTLPFLVNVKRKLYHSTGLDDTDFITYFETNDLGAFNNLMLSLAKVPENKYHVRWGNPTVLGTIQPIENLVKTLSMGN
notes: recombinant, plasmid pET3a-Idcld (Dr. Rova) in E. coli BL21 (DE3); soluble protein fraction, not purified
- Km [3]: 320 ± 160 µM
